Experimental data from patent US20240050583A1 (HARBOUR BIOMED SHANGHAI, published 2024).
Blank lines part the entries; values can stand above or below the binder they belong to.

How the values were obtained:
human 5T4 = biological target: T1, human 5T4 (human, UniProt Q13641 32-420); assay: flow cytometry (FACS) on HCC1954 cells highly expressing human 5T4
T1 construct: whole, on cells; also called trophoblast glycoprotein; TPBG
T1 sequence (looked up): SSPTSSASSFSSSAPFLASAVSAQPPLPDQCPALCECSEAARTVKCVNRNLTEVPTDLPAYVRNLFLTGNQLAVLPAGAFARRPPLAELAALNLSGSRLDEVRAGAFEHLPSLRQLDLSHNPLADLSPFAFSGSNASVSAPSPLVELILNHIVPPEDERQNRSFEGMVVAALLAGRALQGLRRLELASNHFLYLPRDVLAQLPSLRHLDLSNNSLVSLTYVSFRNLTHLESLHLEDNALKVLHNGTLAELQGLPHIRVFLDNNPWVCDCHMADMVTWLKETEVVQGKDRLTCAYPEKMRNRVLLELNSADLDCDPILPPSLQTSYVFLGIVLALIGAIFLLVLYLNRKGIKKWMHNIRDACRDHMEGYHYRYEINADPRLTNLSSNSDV
Procedure: The binding ability of the antibody molecules to a human breast cancer cell strain HCC1954 (ATCC, CRL-2338) highly expressing human 5T4 was determined by flow cytometry FACS. Specifically, the cell density was adjusted to 1×10⁶ cells/mL. The cells were seeded in a 96-well V-bottom plate (Corning, #3894) at 100 μL/well, followed by the addition of test antibodies diluted in a 3-fold gradient at a concentration that was 2 times the final concentration, each at 100 μL/well. The cells were incubated at 4° C. for 1 h away from light. Thereafter, the cells in each well were rinsed twice with 100 μL of pre-cooled PBS, and centrifuged at 500 g at 4° C. for 5 min, and then the supernatant was discarded. Thereafter, a fluorescent secondary antibody (Alexa Fluor 488-conjugated AffiniPure Goat Anti-Human IgG, Fcγ Fragment Specific, Jackson ImmunoResearch Inc., #109-545-098, diluted in a 1:500 ratio) was added at 100 μL/well, and the plate was incubated at 4° C. for 30 min away from light. The cells in each well were then rinsed twice with 100 μL of pre-cooled PBS and centrifuged at 500 g at 4° C. for 5 min, and then the supernatant was discarded. Finally, the cells in each well were resuspended in 200 μL of pre-cooled PBS. Fluorescence signal values were read using a BD FACS CANTOII flow cytometer, and the data were processed and analyzed using FlowJo v10 (FlowJo, LLC) software.

human CTLA4 = biological target: T2, human CTLA4 (human, UniProt P16410 36-223); assay: flow cytometry (FACS) on HEK293/hCTLA4 cells
T2 construct: whole, on cells; HEK293T cell strain HEK293/hCTLA4 highly expressing human CTLA4 (constructed by Harbour BioMed); also called hCTLA4; CD152
T2 sequence (looked up): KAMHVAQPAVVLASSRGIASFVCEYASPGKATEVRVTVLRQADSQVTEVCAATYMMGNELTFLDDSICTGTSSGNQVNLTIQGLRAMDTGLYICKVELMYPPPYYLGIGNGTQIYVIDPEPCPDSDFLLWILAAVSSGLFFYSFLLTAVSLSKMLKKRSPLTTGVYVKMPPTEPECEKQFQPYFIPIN
Procedure: The binding ability of the antibody molecules to an HEK293T cell strain HEK293/hCTLA4 (constructed by Harbour BioMed) highly expressing human CTLA4 and other cells was determined by flow cytometry FACS. Specifically, the HEK293/hCTLA4 cells were digested and resuspended in a DMEM medium, with the cell density adjusted to 1×10⁶ cells/mL. HEK293 cells not expressing CTLA4 were used as a negative control. Thereafter, the cells were seeded in a 96-well V-bottom plate (Corning, #3894) at 100 μL/well and centrifuged at 4° C. for 5 min, and the supernatant was discarded. Then, the serially diluted antibody molecules were added to the 96-well plate at 100 μL/well, and the mixtures were well mixed. […]
Then, the cells in each well were rinsed twice with 100 μL of pre-cooled FACS buffer (PBS buffer containing 0.5% BSA) and centrifuged at 500 g at 4° C. for 5 min, and then the supernatant was discarded. […] Fluorescence signal values were read using a BD FACS CANTOII flow cytometer, and the data were processed and analyzed using FlowJo v10 (FlowJo, LLC) software. The data were processed and analyzed by plotting using GraphPad Prism 8 software, and binding curves of the antibodies to target cells, EC₅₀ values and other parameters were obtained through four-parameter nonlinear fitting.

human BCMA [1] = biological target: T3, human BCMA (human, UniProt Q02223 1-184); assay: flow cytometry (FACS) on HEK293T-hBCMA and NCI-H929 cells, legend of FIG. 32
T3 construct: whole, on cells; also called hBCMA; tumor necrosis factor receptor superfamily member 17
T3 sequence (looked up): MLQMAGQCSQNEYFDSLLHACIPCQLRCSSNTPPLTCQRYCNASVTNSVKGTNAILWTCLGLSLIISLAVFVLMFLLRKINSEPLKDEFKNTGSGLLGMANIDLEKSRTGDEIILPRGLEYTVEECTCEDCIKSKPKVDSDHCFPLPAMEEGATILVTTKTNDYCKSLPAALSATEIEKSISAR

human BCMA [2] = biological target: T3, human BCMA; assay: flow cytometry (FACS) on HEK293T-hBCMA cells

B1: HCAb PR004432 (antibody, human IgG1, V domains shown)
VH: EVQLQQSGPGLVKPSQTLSLTCAISGDSVSNNYAAWNWIRQSPSRGLEWLGRTYYRSKWYNDYAVSVKSRITINPDTSKNQFSLQLNRVTPEDTAVYYCARDNYYGSGSPPVDALDIWGQGTMVTVSS
notes: Fully human heavy-chain-only antibody with human IgG1 hinge and Fc; also called 1041P014H2; anti-5T4 HCAb antibody PR004432
binding result (human 5T4): binds

B2: PR004432-ADC (antibody, human IgG1, V domains shown)
VH: EVQLQQSGPGLVKPSQTLSLTCAISGDSVSNNYAAWNWIRQSPSRGLEWLGRTYYRSKWYNDYAVSVKSRITINPDTSKNQFSLQLNRVTPEDTAVYYCARDNYYGSGSPPVDALDIWGQGTMVTVSS
modifications: mc-vc-PAB-MMAE coupled to Cys-220 (Eu numbering; 97.12% of the site coupled)
notes: Purified coupling product of HCAb PR004432 with mc-vc-PAB-MMAE, main component DAR=2; also called coupling product PR004432-ADC
binding result (human 5T4): binds

B4: PR000020-ADC (antibody, human IgG1, V domains shown)
VH: EVQLVETGGGLIQPGGSLRLSCAASGLNVSRHYLSWVRQAPGKGLEWVAVIYSGGGIEYVDSVKGRFTISRDNANNTLYLQMRSLRTEDSAVYYCARAIPRPHGSDIWGQGTMVTVSS
modifications: mc-vc-PAB-MMAE coupled to C124 (Cys-220 according to Eu numbering)
notes: Purified coupling product of HCAb PR000020 with mc-vc-PAB-MMAE, main component DAR=2; also called coupling product PR000020-ADC
binding result (human CTLA4): binds

B5: PR004433-ADC (antibody, human IgG1, V domains shown)
VH: EVQLVETGGGLIQPGGSLRLSCAASGFTVSDSYMTWVRQAPGKGLEWVSVIFSGGRTYYSDSVKGRFTISRDNAKNTLYLQMNSLRAEDTALYYCARRNYDDTRGTDVFDIWGQGTMVTVSS
modifications: mc-vc-PAB-MMAE coupled to Cys-220 (Eu numbering; 98% of the site coupled)
notes: Coupling product of HCAb PR004433 with mc-vc-PAB-MMAE, main component DAR=2; also called coupling product PR004433-ADC
binding result (human BCMA [1]): binds

B6: PR001046-ADC (antibody, human IgG1, V domains shown)
VH: EVQLVETGGGLIQPGGSLRLSCAASGFTVSDNYMTWVRQAPGKGLEWVSVIFSGGNTYYADSVKGRFTISRDNAKNTLYLQMNSLRAEDTALYYCARRNYDDTRGTDVFDIWGQGTMVTVSS
modifications: mc-vc-PAB-MMAE coupled mainly to the cysteine at site 127 (Cys-220 according to Eu numbering)
notes: Purified coupling product of HCAb PR001046 with mc-vc-PAB-MMAE, main component DAR=2; also called coupling product PR001046-ADC
binding result (human BCMA [2]): binds

More lines, now with the values ahead:

binding result (human CTLA4): binds
B3: HCAb PR000020 (antibody, human IgG1, V domains shown)
VH: EVQLVETGGGLIQPGGSLRLSCAASGLNVSRHYLSWVRQAPGKGLEWVAVIYSGGGIEYVDSVKGRFTISRDNANNTLYLQMRSLRTEDSAVYYCARAIPRPHGSDIWGQGTMVTVSS
notes: Fully human heavy-chain-only antibody (VH, human IgG1 hinge, CH2, CH3), dimer of two heavy chains, no light chain; also called CL24; anti-CTLA4 HCAb antibody PR000020

binding result (human BCMA [2]): binds
B7: HCAb PR001046 (antibody, human IgG1, V domains shown)
VH: EVQLVETGGGLIQPGGSLRLSCAASGFTVSDNYMTWVRQAPGKGLEWVSVIFSGGNTYYADSVKGRFTISRDNAKNTLYLQMNSLRAEDTALYYCARRNYDDTRGTDVFDIWGQGTMVTVSS
notes: Fully human heavy-chain-only antibody with human IgG1 hinge and Fc; also called 1005P63B7; anti-BCMA HCAb antibody PR001046
